Results taken from the Human Domainome abundance scans (Beltran et al. 2025).
± gives the uncertainty stated by the source.

B1: Far upstream element-binding protein 3, residues 75 to 150; numbered along this chain, Q96I24 (parent)
chain: RTVITEEFKVPDKMVGFIIGRGGEQISRIQAESGCKIQIASESSGIPERPCVLTGTPESIEQAKRLLGQIVDRCRN

Variants of: B1
Assay: abundance fitness (aPCA) (normalised: wild type 0, dead -1); higher = more abundant; growth selection in yeast, the domain comes from the species named
Settings: Homo sapiens
In the case of RTVITEEFKVPDKMVGFIIGRGGEAISRIQAESGCKIQIASESSGIPERPCVLTGTPESIEQAKRLLGQIVDRCRN [Q25A], the abundance fitness is reported as -0.098 ± 0.03. RTVITEEFEVPDKMVGFIIGRGGEQISRIQAESGCKIQIASESSGIPERPCVLTGTPESIEQAKRLLGQIVDRCRN [K9E] gave an abundance fitness of -0.044 ± 0.034. In the case of RTVITEEFKVPDKPVGFIIGRGGEQISRIQAESGCKIQIASESSGIPERPCVLTGTPESIEQAKRLLGQIVDRCRN [M14P], the abundance fitness is reported as -0.451 ± 0.05. Variant RTVITEEFKVPDKVVGFIIGRGGEQISRIQAESGCKIQIASESSGIPERPCVLTGTPESIEQAKRLLGQIVDRCRN [M14V] has an abundance fitness of -0.159 ± 0.033. RTVITFEFKVPDKMVGFIIGRGGEQISRIQAESGCKIQIASESSGIPERPCVLTGTPESIEQAKRLLGQIVDRCRN [E6F] gave an abundance fitness of -0.16 ± 0.056. RTVYTEEFKVPDKMVGFIIGRGGEQISRIQAESGCKIQIASESSGIPERPCVLTGTPESIEQAKRLLGQIVDRCRN [I4Y] showed an abundance fitness of -0.006 ± 0.066. Variant RTVITEEFKVPDKMVGFIIGRGGEQISRIQAESGCKIQIASEQSGIPERPCVLTGTPESIEQAKRLLGQIVDRCRN [S43Q] has an abundance fitness of -0.055 ± 0.045. RTVITEEFKVPDKMVGFIIGRGGEQISRIQAESGCKIQIASEMSGIPERPCVLTGTPESIEQAKRLLGQIVDRCRN [S43M] showed an abundance fitness of -0.079 ± 0.047. In the case of RTVITEEFKVPDKMVGFIIGRGGEQISRIQAESGCKIQIASEWSGIPERPCVLTGTPESIEQAKRLLGQIVDRCRN [S43W], the abundance fitness is reported as -0.155 ± 0.038. RTVITEEFKVPDKMVGFIIGRGGEQISRIQAESGAKIQIASESSGIPERPCVLTGTPESIEQAKRLLGQIVDRCRN [C35A] showed an abundance fitness of -0.025 ± 0.034. With RTVITEEFKVPDKMVGFIIGRGGEQISRIQAESGQKIQIASESSGIPERPCVLTGTPESIEQAKRLLGQIVDRCRN [C35Q] the abundance fitness was -0.588 ± 0.074. In the case of RTVITEEFKVPDKMVGFIIGRGGEQISRIQAESGHKIQIASESSGIPERPCVLTGTPESIEQAKRLLGQIVDRCRN [C35H], the abundance fitness is reported as -0.585 ± 0.12. In the case of RTVITEEFKVPDKMVGFIIGRGGEQISRIQAESGCKIQIASESSGIPERPCVLTGTPWSIEQAKRLLGQIVDRCRN [E58W], the abundance fitness is reported as -0.161 ± 0.04. For RTVITEEFKVPDKMVGFIIGRGGEQISRIQAESGCKIQIASESSGIPERPCVLTGTPTSIEQAKRLLGQIVDRCRN [E58T], the abundance fitness was -0.003 ± 0.048. In the case of RTVITEEFKVPDKMVGFIIGRGGEQISRIQAESGCKIQIARESSGIPERPCVLTGTPESIEQAKRLLGQIVDRCRN [S41R], the abundance fitness is reported as 0.032 ± 0.027. Variant RTVITEEFKVPDKMVGFIIGRGGEQISRIQAESGCKIQIATESSGIPERPCVLTGTPESIEQAKRLLGQIVDRCRN [S41T] has an abundance fitness of -0.02 ± 0.038. Work on RTVITEEFKVPDKMVGFIIGRGGEQISRIQAESGCKIQIAAESSGIPERPCVLTGTPESIEQAKRLLGQIVDRCRN [S41A] yielded an abundance fitness of -0.035 ± 0.031. Work on RTVITEEFKVPDKMVGFIIGRGGEQISRIQAESGCKIQIASESSGIPERPCVLTGTPESIEQAKRLLGQIVSRCRN [D72S] yielded an abundance fitness of -0.035 ± 0.033. With RTVITEEFKVPDKMVGFIIGRGGEQISRIQAESGCKIQIASESSGIPERPCVLTGTPESIEQAKRLLGQIVGRCRN [D72G] the abundance fitness was -0.033 ± 0.026. With RTVITEEFKVPDKMVGFIIGRGGEQISRIQAESGCKIQIASESSGIPERPCVLTGTPESIEQAKRLLGQIVQRCRN [D72Q] the abundance fitness was -0.086 ± 0.041. RTVITEEFKVPYKMVGFIIGRGGEQISRIQAESGCKIQIASESSGIPERPCVLTGTPESIEQAKRLLGQIVDRCRN [D12Y] showed an abundance fitness of -0.116 ± 0.073. With RTVITEEFKVPDKMVGFIIGRGGEQISRIQAESGCKGQIASESSGIPERPCVLTGTPESIEQAKRLLGQIVDRCRN [I37G] the abundance fitness was -0.664 ± 0.028. Variant RTVITEYFKVPDKMVGFIIGRGGEQISRIQAESGCKIQIASESSGIPERPCVLTGTPESIEQAKRLLGQIVDRCRN [E7Y] has an abundance fitness of -0.037 ± 0.055. Variant RTVITEEFKVPDKMVGFIIGRGGEQISRIQAESGCKIQIASESSGIPERPCVLTGTPESIEQAKRLHGQIVDRCRN [L67H] has an abundance fitness of -0.908 ± 0.21. RTVITEEFKVPDKMVGFIIGRGGEQISRIQAESGCKIQIASESSGIPEWPCVLTGTPESIEQAKRLLGQIVDRCRN [R49W] showed an abundance fitness of -0.271 ± 0.034. With RTVITEEFKTPDKMVGFIIGRGGEQISRIQAESGCKIQIASESSGIPERPCVLTGTPESIEQAKRLLGQIVDRCRN [V10T] the abundance fitness was -0.407 ± 0.038. For RTVITEEFKFPDKMVGFIIGRGGEQISRIQAESGCKIQIASESSGIPERPCVLTGTPESIEQAKRLLGQIVDRCRN [V10F], the abundance fitness was -0.055 ± 0.057. With RTVITEEFKIPDKMVGFIIGRGGEQISRIQAESGCKIQIASESSGIPERPCVLTGTPESIEQAKRLLGQIVDRCRN [V10I] the abundance fitness was -0.036 ± 0.056. Variant RTVITEEFKVPDKMVGFIIGRGGEQISRIQAESLCKIQIASESSGIPERPCVLTGTPESIEQAKRLLGQIVDRCRN [G34L] has an abundance fitness of -0.264 ± 0.036. Work on RTVITEEFKVPDKMVGFIIGRGGEQISRIQAESKCKIQIASESSGIPERPCVLTGTPESIEQAKRLLGQIVDRCRN [G34K] yielded an abundance fitness of -0.027 ± 0.047. RTVITEEFKVPDKMVGFIIGRGGEQISRIQAESECKIQIASESSGIPERPCVLTGTPESIEQAKRLLGQIVDRCRN [G34E] gave an abundance fitness of -0.089 ± 0.033. Work on RTVITEEFKVPDKMVGFIIGRGGEQISRIQAESPCKIQIASESSGIPERPCVLTGTPESIEQAKRLLGQIVDRCRN [G34P] yielded an abundance fitness of -0.775 ± 0.067. Variant RTVITEEFKVPDKMVGFIIGRGGEQISRIQAESGCKIQIASESSGIPERPCVLTGTPESIEQAKRLLGQEVDRCRN [I70E] has an abundance fitness of -0.004 ± 0.035. RTVITEEFKVPDKMVGFIIGRGGEQISRIQAESGCKIQIASESSGIPERPCVLTGTPESIEQAKRLLGQSVDRCRN [I70S] gave an abundance fitness of -0.055 ± 0.034. For RTVITEEFKVPDKMVGFIIGRGGEQISRIQAESGCKIQIASESSGGPERPCVLTGTPESIEQAKRLLGQIVDRCRN [I46G], the abundance fitness was 0.011 ± 0.026. RTVITEEFKVPDKMVGFIIGRGGEQISRIQAESGCKIQIASESSGIPERPCVLTGTRESIEQAKRLLGQIVDRCRN [P57R] showed an abundance fitness of -0.013 ± 0.031.
